# T1: recombinant N-terminal extracellular domain protein of human CD47 molecule (hCD47) (UniProt Q08722 19-135)
# T1 chain: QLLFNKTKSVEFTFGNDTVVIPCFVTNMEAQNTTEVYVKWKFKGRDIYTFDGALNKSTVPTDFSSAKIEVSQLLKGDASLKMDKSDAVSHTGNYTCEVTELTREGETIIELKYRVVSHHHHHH
# Tests used:
# [1] = target: T2, human CD47 on CCRF-CEM cells (CD47 positive cells) (human, UniProt Q08722 19-323); test: FACS binding
# [2] = target: T1, recombinant N-terminal extracellular …; test: ELISA binding
# [3] = target: T1, recombinant N-terminal extracellular …; test: BLI; avid
# [4] = target: T1, recombinant N-terminal extracellular …; test: ELISA blocking of CD47-SIRPα
# [5] = target: T2, human CD47 on CCRF-CEM cells (CD47 …); test: FACS blocking of CD47-SIRPα
# [6] = target: T1, recombinant N-terminal extracellular …; test: BLI; affinity
Binder,EC50 [1],EC50 [2],Kd [3],IC50 [4],IC50 [5],Kd [6]
"h15G6 VH-v5/VK-v1 (antibody, V domains shown) VH: QVQLVQSGAEVKKPGASVKVSCKASGYTFTDYYIHWVRQAPGQGLEWMGWIYPGSGNTKYNEKFQGRVTMTRDTSISTAYMELSSLRSDDTAVYYCARRREDSFDYWGQGTLVTVSS VL: DIVMTQSPDSLAVSLGERATINCKSSQSLLYSSNQKNYLAWYQRKPGQPPKLLIYWASNRESGVPDRFSGSGSGTDFTLTISSLQAEDVAVYYCQQFYRYPLTFGQGTKVEIK",0.0483 nM,0.0314 nM,0.2 nM,0.118 nM,0.0488 nM,23 nM
"h15G6 VH-v1/VK-v1 (antibody, V domains shown) VH: QIQLVQSGAEVKKPGASVKVSCKASGYTFTDYYIHWVRQAPGQGLEWMGWIYPGSGNTKYNEKFQGRVTLTVDTSSSTVYMELSSLRSDDTAVYFCARRREDSFDYWGQGTTLTVSS VL: DIVMTQSPDSLAVSLGERATINCKSSQSLLYSSNQKNYLAWYQRKPGQPPKLLIYWASNRESGVPDRFSGSGSGTDFTLTISSLQAEDVAVYYCQQFYRYPLTFGQGTKVEIK",0.0602 nM,0.092 nM,0.41 nM,0.0942 nM,0.0686 nM,18 nM
"h15G6 VH-v7/VK-v2 (antibody, V domains shown) VH: QVQLVQSGAELKKPGASVKVSCKASGYTFTDYYIHWVRQAPGQGLEWMGWIYPGSGNTKYNEKFQGRVTLTVDTSTSTVYMELSSLRSDDTAVYYCARRREDSFDYWGQGTLVTVSS VL: not shown",0.0488 nM,0.0229 nM,0.71 nM,0.0843 nM,0.0397 nM,56 nM
"h15G6 VH-v7/VK-v1 (antibody, V domains shown) VH: QVQLVQSGAELKKPGASVKVSCKASGYTFTDYYIHWVRQAPGQGLEWMGWIYPGSGNTKYNEKFQGRVTLTVDTSTSTVYMELSSLRSDDTAVYYCARRREDSFDYWGQGTLVTVSS VL: DIVMTQSPDSLAVSLGERATINCKSSQSLLYSSNQKNYLAWYQRKPGQPPKLLIYWASNRESGVPDRFSGSGSGTDFTLTISSLQAEDVAVYYCQQFYRYPLTFGQGTKVEIK",0.0482 nM,0.0283 nM,0.6 nM,0.053 nM,0.134 nM,41 nM

# From US20210292412A1 (published 2021)
